Source: article PMC9403797, “Back From the Dead: The Atypical Kinase Activity of a Pseudokinase Regulator of Cation Fluxes During Inducible Immunity” (Frontiers in Plant Science, 2022)

Biological target: T1, MPK19 (Arabidopsis, UniProt Q9LUC3 1-598)
T1 construct: MPK19, MAPK family kinase, Arabidopsis; fusion protein spotted on the functional protein microarray; source: printed on protein microarrays (AtPMA-5000 and AtPMA-10000)
T1 sequence (looked up): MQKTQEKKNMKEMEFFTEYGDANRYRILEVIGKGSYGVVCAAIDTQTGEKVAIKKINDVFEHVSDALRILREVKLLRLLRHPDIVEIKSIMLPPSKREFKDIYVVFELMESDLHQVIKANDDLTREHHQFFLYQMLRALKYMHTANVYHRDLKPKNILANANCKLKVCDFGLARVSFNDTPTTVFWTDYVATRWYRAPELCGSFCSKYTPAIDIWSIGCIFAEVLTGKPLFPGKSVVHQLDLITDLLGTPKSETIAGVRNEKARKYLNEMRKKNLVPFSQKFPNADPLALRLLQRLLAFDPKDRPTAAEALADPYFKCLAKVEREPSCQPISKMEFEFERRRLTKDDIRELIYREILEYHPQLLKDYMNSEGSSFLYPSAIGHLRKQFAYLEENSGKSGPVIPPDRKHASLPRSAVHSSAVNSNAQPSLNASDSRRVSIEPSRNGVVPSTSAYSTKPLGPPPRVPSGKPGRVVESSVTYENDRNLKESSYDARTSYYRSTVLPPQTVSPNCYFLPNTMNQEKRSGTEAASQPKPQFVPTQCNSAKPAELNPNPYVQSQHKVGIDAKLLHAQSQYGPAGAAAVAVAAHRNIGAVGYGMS
Test: peptide or protein array; functional protein microarrays (AtPMA-5000 and AtPMA-10000, about 15,000 Arabidopsis proteins) probed with 150 ul purified ILK1-V5 in solution for 1.5 h with 1% BSA, 5 mM MgCl2 and MnCl2; detected with Cy5-conjugated anti-V5 antibody; three probe arrays against two control arrays without probe; one-sided t-test, 5% significance, FDR
Conditions: both partners purified

B1: ILK1-V5 (integrin-linked kinase 1, Arabidopsis) (enzyme, UniProt F4IS56 1-479, looked up)
chain: MENITAQLKRGISRQFSTGSIRRTLSRQFTRQSSLDPRRTNMRFSFGRQSSLDPIRRSPDSSKSDDEPHMSVPENLDSTMQLLFMASKGDVRGIEELLDEGIDVNSIDLDGRTALHIAACEGHLGVVKALLSRRANIDARDRWGSTAAADAKYYGNLDVYNLLKARGAKVPKTRKTPMTVSNPREVPEYELNPLEVQVRKSDGISKGAYQVAKWNGTRVSVKILDKDSYSDPERINAFRHELTLLEKVRHPNVIQFVGAVTQNIPMMIVVEYNPKGDLSVYLQKKGRLSPSKALRFALDIARGMNYLHECKPDPIIHCDLKPKNILLDRGGQLKISGFGMIRLSKISQDKAKVANHKAHIDLSNYYIAPEVYKDEIFDLRVDAHSFGVILYEITEGVPVFHPRPPEEVARMMCLEGKRPVFKTKSRSYPPDIKELIEKCWHPEAGIRPTFSEIIIRLDKIVANCSKQGWWKDTFKFPWK
notes: ILK1, integrin-linked kinase 1, a pseudokinase of the Raf-like MAP3K family, Arabidopsis; also called purified ILK1-V5 protein; source: purified as described previously (Brauer et al., 2014, 2016); purity validated by mass spectrometry
- binding result: binds
